Assay results as given in paper PMC10846083.

Experiments:
[1] = target: T1, MqsA (Escherichia coli K-12 MG1655) (UniProt Q46864); assay: EMSA; conditions: EMSA: 0.25 pmol biotin probe, MqsA titration, 6% polyacrylamide gel in TBE, buffer not given, footprinting: 200 ng FAM probe, 30 min, 25 C
T1 sequence: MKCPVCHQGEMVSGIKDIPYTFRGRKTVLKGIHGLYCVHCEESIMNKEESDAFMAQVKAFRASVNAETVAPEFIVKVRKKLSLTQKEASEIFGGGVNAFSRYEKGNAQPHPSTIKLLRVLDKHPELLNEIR

[2] = target: T1, MqsA (Escherichia coli K-12 MG1655); assay: DNase I footprinting; conditions: EMSA: 0.25 pmol biotin probe, MqsA titration, 6% polyacrylamide gel in TBE, buffer not given, footprinting: 200 ng FAM probe, 30 min, 25 C

Sequence	binding [1]	binding [2]
CTGGCGTATGAGGTAATAAAGCGCGTTTGGGAAGGTGAAATGTTGCTGGTAAATGATTCGGAGTCAGCGGGGGAAGGTGTCGGTGCGGATGCCTGACCTGTGGATATAGCGGTTAAAACCTTCTTTTGCGTCATTATCAAAGTTCCATGCCCGCCAACCATCCGACCTTCGGCATCACGAACTATCAGGCGGACGTGAATGCCCTGGTCGTCTTCAATGTTAATGTCGGTGATACCGGCAGATACCAGTGGCCCTGCTACGCAATC (double strand) [lfgA promoter mutant probe 1 (MP)]	binds	–
CTGGCGTATGAGGTAATAAAGCGCGTTTGGGAAGGTGAAATGTTGCTGGTAAATGATTCGGAGTCAGCGGGGGAAGGTGTCGGTGCGGATGCCTGACCTGTGGATATAGCGGTTAAAACCTTCACCGGCGTCCGGTTCAAAGTTCCATGCCCGCCAACCATCCGACCTTCGGCATCACGAACTATCAGGCGGACGTGAATGCCCTGGTTTGTGTCAATGTTAATGTCGGTGATACCGGCAGATACCAGTGGCCCTGCTACGCAATC (double strand) [lfgA promoter mutant probe 2 (MP2)]	no binding	–
GATTGCGTAGCAGGGCCACTGGTATCTGCCGGTATCACCGACATTAACATTGAAGACGACCAGGGCATTCACGTCCGCCTGATAGTTCGTGATGCCGAAGGTCGGATGGTTGGCGGGCATGGAACTTTGAACCGGACGCCGGTGAAGGTTTTAACCGCTATATCCACAGGTCAGGCATCCGCACCGACACCTTCCCCCGCTGACTCCGAATCATTTACCAGCAACATTTCACCTTCCCAAACGCGCTTTATTACCTCATACGCCAG (double strand) [lfgA (yfjY) promoter WT probe]	binds	–
GATTGCGTAGCAGGGCCACTGGTATCTGCCGGTATCACCGACATTAACATTGAAGACGACCAGGGCATTCACGTCCGCCTGATAGTTCGTGATGCCGAAGGTCGGATGGTTGGCGGGCATGGAACTTTGAACCGGACGCCGGTGAAGGTTTTAACCGCTATATCCACAGGTCAGGCATCCGCACCGACACCTTCCCCCGCTGACTCCGAATCATTTACCAGCAACATTTCACCTTCCCAAACGCGCTTTATTACCTCATACGCCAG (double strand) [FAM-lfgA (yfjY) promoter footprint probe]	–	binds
